From publication PMC4549274

Key:
Test in all cases: native MS; nano-ESI native MS, 15 μM monomer, buffer-exchanged into 100 mM ammonium acetate pH 8.5, positive ion mode
[1] = target: CrRbcX-IIa(33–189) (Chlamydomonas reinhardtii)
[2] = target: CrRbcX-IIa(34–156) (Chlamydomonas reinhardtii)
[3] = target: CrRbcX-IIa(34–189) (Chlamydomonas reinhardtii)

Substance: CrRbcX-IIa(33–189) (natural protein)
- stoichiometry N [1]: 2

Substance: CrRbcX-IIa(34–156) (domain or fragment)
- stoichiometry N [2]: 4

Substance: CrRbcX-IIa(34–189) (domain or fragment)
- stoichiometry N [3]: 4
